# Measurements reported in publication doi:10.1101/2025.05.09.653063 (bioRxiv, 2025).
# B1: His-tagged wild type PsmA (natural protein, Saccharolobus islandicus REY15A, UniProt C3MQ43 1-241, looked up)
# chain: MAFGPAAMGYDRAITIFSPDGSLYQVDYAFEAVKKGWTAIGIKSKSGVVIASEKRKAQSLLDVDSIEKVFLIDDHVGCSFAGLASDGRVLIDYARNIALQHRLIYDEPVSIDYLTKSVADVKQMYTQHGGVRPFGVALVIAGIDKSVPKLYMTEPSGQYMPYQAVAIGQGYYTATEFLEKNYKEDLTIEDTILLALKALSATLKPNEKLTPNTVEIGYASTQTGLFLKMTSEDKNMYLQKL
# B2: His-tagged PsmA S200D (natural protein, Saccharolobus islandicus REY15A, UniProt C3MQ43 1-241, looked up)
# chain: MAFGPAAMGYDRAITIFSPDGSLYQVDYAFEAVKKGWTAIGIKSKSGVVIASEKRKAQSLLDVDSIEKVFLIDDHVGCSFAGLASDGRVLIDYARNIALQHRLIYDEPVSIDYLTKSVADVKQMYTQHGGVRPFGVALVIAGIDKSVPKLYMTEPSGQYMPYQAVAIGQGYYTATEFLEKNYKEDLTIEDTILLALKALDATLKPNEKLTPNTVEIGYASTQTGLFLKMTSEDKNMYLQKL
# B3: His-tagged PsmA T213E (natural protein, Saccharolobus islandicus REY15A, UniProt C3MQ43 1-241, looked up)
# chain: MAFGPAAMGYDRAITIFSPDGSLYQVDYAFEAVKKGWTAIGIKSKSGVVIASEKRKAQSLLDVDSIEKVFLIDDHVGCSFAGLASDGRVLIDYARNIALQHRLIYDEPVSIDYLTKSVADVKQMYTQHGGVRPFGVALVIAGIDKSVPKLYMTEPSGQYMPYQAVAIGQGYYTATEFLEKNYKEDLTIEDTILLALKALSATLKPNEKLTPNEVEIGYASTQTGLFLKMTSEDKNMYLQKL
# Target: the molecule itself
# Assay: focused ion beam electron microscopy
row,Protein,stoichiometry N
1,B1,14
2,B2,14
3,B3,14
